Data: paper doi:10.1101/160580 (bioRxiv, 2017)

Legend:
NMR relaxation = biological target: the molecule itself; assay: NMR relaxation
[1] = biological target: the molecule itself; assay: cell-based or functional assay

Protein	binding result (NMR relaxation)	in vitro VE dissolution (turbidity at 640 nm), F104A lysin against WT lysin [1] [fold]
sperm lysin from red abalone (Haliotis rufescens), wild type (natural protein) RSWHYVEPKFLNKAFEVALKVQIIAGFDRGLVKWLRVHGRTLSTVQKKALYFVNRRYMQTHWANYMLWINKKIDALGRTPVVGDYTRLGAEIGRRIDMAYFYDFLKDKNMIPKYLPYMEEINRMRPADVPVKYMGK	binds	–
F104A lysin (monomeric mutant of red abalone sperm lysin) (natural protein) RSWHYVEPKFLNKAFEVALKVQIIAGFDRGLVKWLRVHGRTLSTVQKKALYFVNRRYMQTHWANYMLWINKKIDALGRTPVVGDYTRLGAEIGRRIDMAYFYDALKDKNMIPKYLPYMEEINRMRPADVPVKYMGK	–	≥ 4
